Results on eight molecules are retold here after patent publication US20210332131A1 (TIGATX, published 2021).

In one test the target is T1, CD20 (UniProt P11836 1-297, limits assumed).
T1 construct: whole, on cells
T1 sequence (looked up): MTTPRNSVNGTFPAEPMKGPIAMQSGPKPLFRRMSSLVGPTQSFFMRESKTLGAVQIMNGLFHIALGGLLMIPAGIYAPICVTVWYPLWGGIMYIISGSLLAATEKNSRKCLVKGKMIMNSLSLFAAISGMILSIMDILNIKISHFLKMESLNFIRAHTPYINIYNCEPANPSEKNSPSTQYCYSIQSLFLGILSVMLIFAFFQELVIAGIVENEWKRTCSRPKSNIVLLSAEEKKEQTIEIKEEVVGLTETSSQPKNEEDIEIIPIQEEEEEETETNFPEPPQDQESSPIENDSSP
The test is described as follows: flow cytometry, bispecific supernatant on SKBR3-CD20 cells, without or after pre-block of CD47 with m9, detection anti-IgA PE, GeoMFI; SKBR3 WT (CD20-) panel as comparison. (In general: Flow cytometry measures light scatter and fluorescence of single cells or particles in a stream.)

The target in test [1] is T2, CD47 (human, UniProt Q08722 19-323).
T2 construct: whole, on cells; also called Cluster of Differentiation 47; human CD47
T2 sequence (Q08722 19-323): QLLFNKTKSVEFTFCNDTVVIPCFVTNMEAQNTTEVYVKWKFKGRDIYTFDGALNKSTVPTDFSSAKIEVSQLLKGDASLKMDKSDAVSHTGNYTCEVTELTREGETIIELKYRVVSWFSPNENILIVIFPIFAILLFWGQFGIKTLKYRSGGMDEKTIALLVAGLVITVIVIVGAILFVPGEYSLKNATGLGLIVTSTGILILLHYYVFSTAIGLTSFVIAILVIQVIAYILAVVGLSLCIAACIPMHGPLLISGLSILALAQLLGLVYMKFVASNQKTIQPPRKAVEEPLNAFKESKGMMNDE
Put plainly: flow cytometry, bispecific supernatant on SKBR3 WT (CD20-/CD47+) and SKBR3-CD20 cells, without or after pre-block of CD47 with mIgG1 anti-CD47 PerCP-Cy5.5, detection anti-IgA PE, GeoMFI.
Description: (§1) After the pre-block the IgA antibodies were applied as described above. Samples were analyzed on a BD Canto II, and data has been analyzed using FlowJo (BD).
Cells were fixed and measured by FACS.

Test [2] has as its target T2, CD47. Put plainly: flow cytometry on human erythrocytes (CD235a+), bispecific supernatant, detection anti-human IgA, % positive cells.
Description: A Histopaque/ficoll isolation was performed to separate the erythrocytes from the PMN/PBMC. Plasma, PBMC, ficoll, histopaque and PMN have been discarded. The remaining pellet of erythrocytes were washed in PBS, spun for 5 minutes at 2400 rpm and pellet was resuspended in 5 mL PBS. […] Dilutions are done in FACS buffer (1% BSA in PBS). Incubated for 30 minutes at RT in the dark, excess unbound antibody was washed away with FACS buffer. 40 uL was added in FACS buffer diluted detection antibody (goat F(ab)′2 anti-human IgA-FITC (Southern Biotech; dilution 1:100), incubated for 30 minutes at RT in the dark, excess unbound antibody was washed away with FACS buffer. Samples were fixed by adding 1% PFA to pelleted cells. Measure on Canto II (BD), gating on CD235-positive events.
Test [3] deals with T2, CD47. Put plainly: flow cytometry on SKBR3 WT cells (CD20-/CD47+), detection anti-IgA PE, GeoMFI.
Description: as §1
In test [4] the target is T2, CD47. The test is described as follows: flow cytometry on SKBR3 WT cells (CD20-/CD47+), detection anti-IgA PE.
Description: as §1

B1: DVD-IgA scFv_LC bispecific antibody #5 (5A3M5-scFv: Obi_LC) (bispecific antibody)
heavy: QVQLVQSGAEVKKPGSSVKVSCKASGYAFSYSWINWVRQAPGQGLEWMGRIFPGDGDTDYNGKFKGRVTITADKSTSTAYMELSSLRSEDTAVYYCARNVFDGYWLVYWGQGTLVTVSSASPTSPKVFPLSLDSTPQDGNVVVACLVQGFFPQEPLSVTWSESGQGVTARNFPPSQDASGDLYTTSSQLTLPATQCPDGKSVTCHVKHYTNPSQDVTVPCRVPPPPPCCHPRLSLHRPALEDLLLGSEANLTCTLTGLRDASGATFTWTPSSGKSAVQGPPERDLCGCYSVSSVLPGSAQPWNHGETFTCTAAHPELKTPLTATLSKSGNTFRPEVHLLPPPSEELALNELVTLTCLARGFSPKDVLVRWLQGSQELPREKYLTWASRQEPSQGTTTFAVTSILRVAAEDWKKGDTFSCMVGHEALPLAFTQKTIDRLAGK
light: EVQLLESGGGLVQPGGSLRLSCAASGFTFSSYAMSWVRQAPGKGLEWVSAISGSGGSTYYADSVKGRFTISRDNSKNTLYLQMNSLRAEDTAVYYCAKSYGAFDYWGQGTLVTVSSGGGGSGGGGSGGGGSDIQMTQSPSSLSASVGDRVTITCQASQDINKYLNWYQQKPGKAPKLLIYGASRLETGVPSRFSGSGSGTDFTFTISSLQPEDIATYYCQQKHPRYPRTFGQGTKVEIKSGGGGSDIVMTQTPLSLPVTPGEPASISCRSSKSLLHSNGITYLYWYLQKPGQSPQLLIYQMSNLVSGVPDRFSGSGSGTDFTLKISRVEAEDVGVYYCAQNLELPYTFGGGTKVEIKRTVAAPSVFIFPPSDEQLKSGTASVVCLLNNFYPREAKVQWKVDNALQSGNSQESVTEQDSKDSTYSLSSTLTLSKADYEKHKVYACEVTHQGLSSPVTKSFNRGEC
notes: Tetravalent homodimer; 5A3M5 (CD47) scFv on the Obinituzumab light chain
Regarding B1, in the test with CD20, the binding result is reported as “binds”.

B2: DVD-IgA bispecific antibody #1 (5A3M5-Obi) (bispecific antibody)
heavy: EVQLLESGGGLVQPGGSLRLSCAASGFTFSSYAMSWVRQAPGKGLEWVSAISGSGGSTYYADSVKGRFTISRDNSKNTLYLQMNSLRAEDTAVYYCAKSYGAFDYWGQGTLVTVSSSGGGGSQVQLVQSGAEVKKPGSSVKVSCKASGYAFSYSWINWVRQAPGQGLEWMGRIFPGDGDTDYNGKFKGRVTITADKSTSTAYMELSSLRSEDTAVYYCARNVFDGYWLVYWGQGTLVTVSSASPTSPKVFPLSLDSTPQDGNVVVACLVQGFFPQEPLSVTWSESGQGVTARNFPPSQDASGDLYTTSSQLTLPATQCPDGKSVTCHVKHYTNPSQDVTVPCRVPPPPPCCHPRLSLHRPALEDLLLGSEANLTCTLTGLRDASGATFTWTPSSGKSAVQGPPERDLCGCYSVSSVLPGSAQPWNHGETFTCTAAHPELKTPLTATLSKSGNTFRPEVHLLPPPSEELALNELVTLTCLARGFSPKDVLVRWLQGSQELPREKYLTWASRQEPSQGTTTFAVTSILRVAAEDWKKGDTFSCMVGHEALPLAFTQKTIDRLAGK
light: DIQMTQSPSSLSASVGDRVTITCQASQDINKYLNWYQQKPGKAPKLLIYGASRLETGVPSRFSGSGSGTDFTFTISSLQPEDIATYYCQQKHPRYPRTFGQGTKVEIKSGGGGSDIVMTQTPLSLPVTPGEPASISCRSSKSLLHSNGITYLYWYLQKPGQSPQLLIYQMSNLVSGVPDRFSGSGSGTDFTLKISRVEAEDVGVYYCAQNLELPYTFGGGTKVEIKRTVAAPSVFIFPPSDEQLKSGTASVVCLLNNFYPREAKVQWKVDNALQSGNSQESVTEQDSKDSTYSLSSTLTLSKADYEKHKVYACEVTHQGLSSPVTKSFNRGEC
notes: Tetravalent homodimer, outer domain CD47 (5A3M5), inner domain CD20 (Obinituzumab)
Take B2: the results for the binding result with CD47 [1] and with CD20 were “no binding” and “binds”, respectively.

B3: DVD-IgA scFv_LC bispecific antibody #6 (Obi-scFv: 2.3D11_LC) (bispecific antibody)
heavy: QVQLQESGPGLVKPSGTLSLTCAVSGVSIRSINWWNWVRQPPGKGLEWIGEIYHSGSTNYNPSLKSRVTISVDKSKNQFSLKLNSVTAADTAVYYCARDGGIAVTDYYYYGLDVWGQGTTVTVSSASPTSPKVFPLSLDSTPQDGNVVVACLVQGFFPQEPLSVTWSESGQGVTARNFPPSQDASGDLYTTSSQLTLPATQCPDGKSVTCHVKHYTNPSQDVTVPCRVPPPPPCCHPRLSLHRPALEDLLLGSEANLTCTLTGLRDASGATFTWTPSSGKSAVQGPPERDLCGCYSVSSVLPGSAQPWNHGETFTCTAAHPELKTPLTATLSKSGNTFRPEVHLLPPPSEELALNELVTLTCLARGFSPKDVLVRWLQGSQELPREKYLTWASRQEPSQGTTTFAVTSILRVAAEDWKKGDTFSCMVGHEALPLAFTQKTIDRLAGK
light: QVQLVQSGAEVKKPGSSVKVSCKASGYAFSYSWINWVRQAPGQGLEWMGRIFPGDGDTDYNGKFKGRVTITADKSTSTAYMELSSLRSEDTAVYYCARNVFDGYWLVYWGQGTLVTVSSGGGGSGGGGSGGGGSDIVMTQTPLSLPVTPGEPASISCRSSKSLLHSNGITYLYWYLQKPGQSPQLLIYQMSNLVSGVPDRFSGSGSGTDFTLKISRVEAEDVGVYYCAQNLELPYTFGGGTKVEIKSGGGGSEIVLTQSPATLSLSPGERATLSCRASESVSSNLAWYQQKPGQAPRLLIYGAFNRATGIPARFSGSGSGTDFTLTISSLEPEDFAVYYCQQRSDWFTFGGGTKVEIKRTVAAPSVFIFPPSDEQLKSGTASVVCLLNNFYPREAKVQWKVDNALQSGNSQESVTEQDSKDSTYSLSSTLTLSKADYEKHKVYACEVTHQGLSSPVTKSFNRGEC
notes: Tetravalent homodimer; Obinituzumab (CD20) scFv on the 2.3D11 light chain; also called bispecific #6
Regarding B3, the binding result with CD20 was “binds”.

B4: DVD-IgA bispecific antibody #2 (Obi-2.3D11) (bispecific antibody)
heavy: QVQLVQSGAEVKKPGSSVKVSCKASGYAFSYSWINWVRQAPGQGLEWMGRIFPGDGDTDYNGKFKGRVTITADKSTSTAYMELSSLRSEDTAVYYCARNVFDGYWLVYWGQGTLVTVSSSGGGGSQVQLQESGPGLVKPSGTLSLTCAVSGVSIRSINWWNWVRQPPGKGLEWIGEIYHSGSTNYNPSLKSRVTISVDKSKNQFSLKLNSVTAADTAVYYCARDGGIAVTDYYYYGLDVWGQGTTVTVSSASPTSPKVFPLSLDSTPQDGNVVVACLVQGFFPQEPLSVTWSESGQGVTARNFPPSQDASGDLYTTSSQLTLPATQCPDGKSVTCHVKHYTNPSQDVTVPCRVPPPPPCCHPRLSLHRPALEDLLLGSEANLTCTLTGLRDASGATFTWTPSSGKSAVQGPPERDLCGCYSVSSVLPGSAQPWNHGETFTCTAAHPELKTPLTATLSKSGNTFRPEVHLLPPPSEELALNELVTLTCLARGFSPKDVLVRWLQGSQELPREKYLTWASRQEPSQGTTTFAVTSILRVAAEDWKKGDTFSCMVGHEALPLAFTQKTIDRLAGK
light: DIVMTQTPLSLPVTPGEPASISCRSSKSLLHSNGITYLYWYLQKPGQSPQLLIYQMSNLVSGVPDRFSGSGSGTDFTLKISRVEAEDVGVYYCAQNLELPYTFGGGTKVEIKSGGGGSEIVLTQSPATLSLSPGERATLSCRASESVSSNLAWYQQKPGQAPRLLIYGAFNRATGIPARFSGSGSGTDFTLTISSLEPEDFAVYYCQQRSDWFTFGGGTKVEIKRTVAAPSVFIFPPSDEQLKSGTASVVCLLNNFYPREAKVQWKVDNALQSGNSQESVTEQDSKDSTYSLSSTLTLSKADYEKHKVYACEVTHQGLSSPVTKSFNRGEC
notes: Tetravalent homodimer, outer domain CD20 (Obinituzumab), inner domain CD47 (2.3D11); also called DVD-IgA Obi-2.3D11
Take B4: the binding result in the test with CD20 is listed as “binds”.

B5: DVD-IgA scFv_HC bispecific antibody #4 (Obi-scFv: 2.3D11_HC) (bispecific antibody)
heavy: QVQLVQSGAEVKKPGSSVKVSCKASGYAFSYSWINWVRQAPGQGLEWMGRIFPGDGDTDYNGKFKGRVTITADKSTSTAYMELSSLRSEDTAVYYCARNVFDGYWLVYWGQGTLVTVSSGGGGSGGGGSGGGGSDIVMTQTPLSLPVTPGEPASISCRSSKSLLHSNGITYLYWYLQKPGQSPQLLIYQMSNLVSGVPDRFSGSGSGTDFTLKISRVEAEDVGVYYCAQNLELPYTFGGGTKVEIKSGGGGSQVQLQESGPGLVKPSGTLSLTCAVSGVSIRSINWWNWVRQPPGKGLEWIGEIYHSGSTNYNPSLKSRVTISVDKSKNQFSLKLNSVTAADTAVYYCARDGGIAVTDYYYYGLDVWGQGTTVTVSSASPTSPKVFPLSLDSTPQDGNVVVACLVQGFFPQEPLSVTWSESGQGVTARNFPPSQDASGDLYTTSSQLTLPATQCPDGKSVTCHVKHYTNPSQDVTVPCRVPPPPPCCHPRLSLHRPALEDLLLGSEANLTCTLTGLRDASGATFTWTPSSGKSAVQGPPERDLCGCYSVSSVLPGSAQPWNHGETFTCTAAHPELKTPLTATLSKSGNTFRPEVHLLPPPSEELALNELVTLTCLARGFSPKDVLVRWLQGSQELPREKYLTWASRQEPSQGTTTFAVTSILRVAAEDWKKGDTFSCMVGHEALPLAFTQKTIDRLAGK
light: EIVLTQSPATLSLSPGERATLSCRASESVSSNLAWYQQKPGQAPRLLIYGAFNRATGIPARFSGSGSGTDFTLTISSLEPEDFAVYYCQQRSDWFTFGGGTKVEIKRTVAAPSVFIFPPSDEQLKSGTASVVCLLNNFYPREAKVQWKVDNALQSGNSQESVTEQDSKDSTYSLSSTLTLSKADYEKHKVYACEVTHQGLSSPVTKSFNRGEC
notes: Tetravalent homodimer; Obinituzumab (CD20) scFv on the 2.3D11 heavy chain; Tested as raw HEK293F supernatant; also called bispecific #4
On to B5, for which the binding result with CD20 and in the test with CD47 [2] was “binds” in each case.

B6: DVD-IgA scFv_HC bispecific antibody #3 (5A3M5-scFv: Obi_HC) (bispecific antibody)
heavy: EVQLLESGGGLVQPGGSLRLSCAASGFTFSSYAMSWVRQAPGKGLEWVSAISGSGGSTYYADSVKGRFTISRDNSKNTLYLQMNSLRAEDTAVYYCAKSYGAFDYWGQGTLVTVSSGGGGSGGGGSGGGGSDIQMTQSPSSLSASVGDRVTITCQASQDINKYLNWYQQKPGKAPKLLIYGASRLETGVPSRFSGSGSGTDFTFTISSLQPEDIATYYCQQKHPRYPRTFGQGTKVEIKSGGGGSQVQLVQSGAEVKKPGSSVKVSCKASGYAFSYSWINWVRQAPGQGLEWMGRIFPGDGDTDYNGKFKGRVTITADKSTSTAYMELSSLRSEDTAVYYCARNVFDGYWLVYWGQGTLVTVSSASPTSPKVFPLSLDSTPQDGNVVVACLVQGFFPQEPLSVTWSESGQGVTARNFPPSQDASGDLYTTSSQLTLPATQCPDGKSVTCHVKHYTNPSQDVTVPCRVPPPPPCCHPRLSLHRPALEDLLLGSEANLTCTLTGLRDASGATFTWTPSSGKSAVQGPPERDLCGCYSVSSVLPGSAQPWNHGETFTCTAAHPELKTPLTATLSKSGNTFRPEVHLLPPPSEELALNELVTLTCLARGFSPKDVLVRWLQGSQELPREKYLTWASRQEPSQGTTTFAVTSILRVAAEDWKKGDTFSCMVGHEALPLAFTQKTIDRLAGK
light: DIVMTQTPLSLPVTPGEPASISCRSSKSLLHSNGITYLYWYLQKPGQSPQLLIYQMSNLVSGVPDRFSGSGSGTDFTLKISRVEAEDVGVYYCAQNLELPYTFGGGTKVEIKRTVAAPSVFIFPPSDEQLKSGTASVVCLLNNFYPREAKVQWKVDNALQSGNSQESVTEQDSKDSTYSLSSTLTLSKADYEKHKVYACEVTHQGLSSPVTKSFNRGEC
notes: Tetravalent homodimer; 5A3M5 (CD47) scFv on the Obinituzumab heavy chain; Tested as raw HEK293F supernatant
As for B6, the binding result with CD20 is reported as “binds”.

B7: 2.3D11-IgA2 (antibody, V domains shown)
VH: QVQLQESGPGLVKPSGTLSLTCAVSGVSIRSINWWNWVRQPPGKGLEWIGEIYHSGSTNYNPSLKSRVTISVDKSKNQFSLKLNSVTAADTAVYYCARDGGIAVTDYYYYGLDVWGQGTTVTVSS
VL: EIVLTQSPATLSLSPGERATLSCRASESVSSNLAWYQQKPGQAPRLLIYGAFNRATGIPARFSGSGSGTDFTLTISSLEPEDFAVYYCQQRSDWFTFGGGTKVEIK
notes: May be the same as IgA3.0-2.3D11; also called bivalent monospecific antibody 2.3D11; anti-CD47 antibody 2.3D11
In the case of B7, the binding result with CD47 [3] is listed as “binds”.

B8: Obi-IgA3.0 (antibody, V domains shown)
VH: QVQLVQSGAEVKKPGSSVKVSCKASGYAFSYSWINWVRQAPGQGLEWMGRIFPGDGDTDYNGKFKGRVTITADKSTSTAYMELSSLRSEDTAVYYCARNVFDGYWLVYWGQGTLVTVSS
VL: DIVMTQTPLSLPVTPGEPASISCRSSKSLLHSNGITYLYWYLQKPGQSPQLLIYQMSNLVSGVPDRFSGSGSGTDFTLKISRVEAEDVGVYYCAQNLELPYTFGGGTKVEIKR
notes: Monospecific anti-CD20 IgA3.0 control; also called IgA3.0-Obi; anti-CD20 Obi antibody
On to B8, for which the binding result with CD47 [4] is “no binding (tested: 1 ug/mL (from paragraph 462, not on the sheet))”.
